According to patent publication EP4644419A1 (Hangzhou Zhongmeihuadong Pharmaceutical Co., Ltd., dated 2025):
Numbering of substitutions follows the chain as printed. One block for each binder: values may come before it.

Assays:
[1] = molecular target: T1, human CD112R antigen protein huCD112R-His (Acro Biosysterm, PVG-H52H4) (human, UniProt Q6DKI7 41-171); test: ELISA, huCD112R-His coated on plate
T1 construct: purchased; also called human antigen protein; not shown: His tag
T1 sequence (looked up): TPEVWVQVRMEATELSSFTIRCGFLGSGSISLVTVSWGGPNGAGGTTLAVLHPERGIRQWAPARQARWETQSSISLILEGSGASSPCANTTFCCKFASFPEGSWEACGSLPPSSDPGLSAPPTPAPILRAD

[2] = molecular target: T2, monkey antigen protein (monkey CD112R, Uniprot ID: A0A2K5WVV8) (monkey, UniProt A0A2K5WVV8 41-171); test: ELISA, monkey antigen protein (as Example 6.1)
T2 sequence: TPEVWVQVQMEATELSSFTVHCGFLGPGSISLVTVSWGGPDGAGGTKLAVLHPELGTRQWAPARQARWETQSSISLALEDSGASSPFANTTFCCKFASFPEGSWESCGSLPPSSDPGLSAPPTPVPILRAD

[3] = molecular target: T1, human CD112R antigen protein …; test: SPR (Biacore X100), antibody captured on Protein A chip, huCD112R-His as analyte, 1:1 Langmuir
[4] = molecular target: T3, human CD112R on GS-J2C/CD112R effector cells (human, UniProt Q6DKI7 1-326); test: cell-based or functional assay
T3 sequence (looked up): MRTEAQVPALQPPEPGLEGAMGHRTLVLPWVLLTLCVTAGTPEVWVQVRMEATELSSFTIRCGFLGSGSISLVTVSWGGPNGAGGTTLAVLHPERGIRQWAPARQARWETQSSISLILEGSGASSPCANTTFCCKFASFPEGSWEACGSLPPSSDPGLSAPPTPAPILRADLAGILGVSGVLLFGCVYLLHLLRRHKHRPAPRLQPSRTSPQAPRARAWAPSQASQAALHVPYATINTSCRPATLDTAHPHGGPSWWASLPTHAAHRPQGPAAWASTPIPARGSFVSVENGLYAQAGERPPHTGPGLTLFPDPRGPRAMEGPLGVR

[5] = molecular target: T4, human CD112R on antigen-specific CD8+ T cells (human, UniProt Q6DKI7 1-326); test: cell-based or functional assay
T4 sequence (looked up): T3 sequence (looked up)

EC50 [1]: 0.155 nM | EC50 [2]: 0.768 nM | Kd [3]: 2.9 nM | EC50 (Blocking effects of the antibodies, reporter gene method) [4]: 0.024 µg/mL | IFN-γ(pg/ml) at 0.5µg/ml antibody [5]: 608 pg/mL | IFN-γ(pg/ml) at 5µg/ml antibody [5]: 678 pg/mL | IFN-γ(pg/ml) at 50µg/ml antibody [5]: 824 pg/mL
B1: C12 (antibody, human IgG1, kappa, V domains shown)
VH: EVQLVASGGGLVKPGGSLKLSCAASGFTFSDYYMYWVRQTPEKRLEWVATISDGGGYTYYPDSVKGRFTISRDNDRNSLYLQMSSLKSEDTAMYYCGREDLWGQGTSVTVSS
VL: DIQMTQSPSSLSASLGERVSLTCRASQDIGSSLNWLQQEPDGTVKRLIYATSRLDSGVPKRFSGSRSGSDYSLTISSLESEDFVDYYCLQYASFPYTFGGGTKLEIKR

EC50 [1]: 0.069 nM | EC50 [2]: 0.069 nM | Kd [3]: 0.206 nM | EC50 (Blocking effects of the antibodies, reporter gene method) [4]: 0.034 µg/mL | IFN-γ(pg/ml) at 0.5µg/ml antibody [5]: 748 pg/mL | IFN-γ(pg/ml) at 5µg/ml antibody [5]: 802 pg/mL
B2: C18 (antibody, human IgG1, kappa, V domains shown)
VH: B1 VH with A6E, Y57F, T58I, Q82L, Y95F
VL: B1 VL with S31R, E39G, K60T

EC50 [1]: 2.27 nM | EC50 [2]: 8.36 nM | Kd [3]: 0.114 nM | EC50 (Blocking effects of the antibodies, reporter gene method) [4]: 0.025 µg/mL | IFN-γ(pg/ml) at 0.5µg/ml antibody [5]: 708 pg/mL | IFN-γ(pg/ml) at 5µg/ml antibody [5]: 835 pg/mL
B3: C20 (antibody, human IgG1, kappa, V domains shown)
VH: B1 VH with A6E, Y32S, Y35C, G54A, S78N, S85G, M93V
VL: B1 VL with S31R, V44I, F94S

EC50 [1]: 0.046 nM | EC50 [2]: 0.047 nM | Kd [3]: 0.397 nM | EC50 (Blocking effects of the antibodies, reporter gene method) [4]: 0.026 µg/mL | IFN-γ(pg/ml) at 0.5µg/ml antibody [5]: 722 pg/mL | IFN-γ(pg/ml) at 5µg/ml antibody [5]: 783 pg/mL | IFN-γ(pg/ml) at 50µg/ml antibody [5]: 819 pg/mL
B4: C8 (antibody, human IgG1, kappa, V domains shown)
VH: B1 VH with Y35F, T58I, M93I, L101F
VL: B1 VL with S31R, T43S, K45R

EC50 [1]: 0.043 nM | EC50 [2]: 0.034 nM | Kd [3]: 0.567 nM | EC50 (Blocking effects of the antibodies, reporter gene method) [4]: 0.033 µg/mL | IFN-γ(pg/ml) at 0.5µg/ml antibody [5]: 571 pg/mL | IFN-γ(pg/ml) at 5µg/ml antibody [5]: 744 pg/mL | IFN-γ(pg/ml) at 50µg/ml antibody [5]: 829 pg/mL
B5: C19 (antibody, human IgG1, kappa, V domains shown)
VH: B1 VH with A6E, G54A, D75A, Y95F
VL: B1 VL with S31Y, T43S, K45R

EC50 [1]: 0.052 nM | EC50 [2]: 0.067 nM | Kd [3]: 0.0687 nM | EC50 (Blocking effects of the antibodies, reporter gene method) [4]: 0.052 µg/mL | IFN-γ(pg/ml) at 0.5µg/ml antibody [5]: 619 pg/mL | IFN-γ(pg/ml) at 5µg/ml antibody [5]: 674 pg/mL | IFN-γ(pg/ml) at 50µg/ml antibody [5]: 759 pg/mL
B6: C14 (antibody, human IgG1, kappa, V domains shown)
VH: QVQLQQPGAELVRPGTSVKLSCKASGNTFTSYWMHWVKQRPGQGHEWIGVIDASDSNTKYNQKFKGKATLTVDTSSSTAYMQLSSLTSEDSAVYYCARYYSGSSYGLDYWGQGTTLTVSS
VL: DIQMTQTASSLSASLGDRVTISCRASQDISNYLNWYQQKPDGTVKLLIYYTSRLHSGVPSRFSGSGSGTDFSLTITHLEQEDIASYFCQQGNMFPPTFGGGTKLEIKR

EC50 [1]: 0.032 nM | EC50 [2]: 0.059 nM | Kd [3]: 0.0141 nM | EC50 (Blocking effects of the antibodies, reporter gene method) [4]: 0.024 µg/mL | IFN-γ(pg/ml) at 0.5µg/ml antibody [5]: 663 pg/mL | IFN-γ(pg/ml) at 5µg/ml antibody [5]: 740 pg/mL | IFN-γ(pg/ml) at 50µg/ml antibody [5]: 875 pg/mL
B7: C4 (antibody, human IgG1, kappa, V domains shown)
VH: EVQLQQSGPELVKPGASVKISCKASGYTFTDYFMNWVKQSHGKSLEWIGDIIPNNDSPNYNQKFKGKATLTVDKSSNTAYMELRSLTSEDSAVYYCASGYFDVWGTGTTVTVSS
VL: DIVMTQSPSSLSVSAGEKVTMSCKSSQSLLNSGNQKNFLAWYQQKPGQPPKLLIYGTSTRESGVPDRFTGSGSGTDFTLTISSVQAEDLAVYYCQNDHSYPWTFGGGTKLEIKR

EC50 [1]: 0.034 nM | EC50 [2]: 0.08 nM | Kd [3]: 0.0576 nM | EC50 (Blocking effects of the antibodies, reporter gene method) [4]: 0.031 µg/mL | IFN-γ(pg/ml) at 0.5µg/ml antibody [5]: 818 pg/mL | IFN-γ(pg/ml) at 5µg/ml antibody [5]: 837 pg/mL
B8: C7 (antibody, human IgG1, kappa, V domains shown)
VH: EVQLQQSGPELVKPGASVKISCKASGYTLTDYYMNWVKQSHGKSLEWIGDINPNNGGTNFNQKFKGKATLTIDKSSSTTYMELRSLTSEDSAVYYCASLFFDYWGQGTTLTVSS
VL: B7 VL with F38Y, T57A, V91L, D97A, Y100S, W102Y

EC50 [1]: 0.033 nM | EC50 [2]: 0.052 nM | Kd [3]: 0.022 nM | EC50 (Blocking effects of the antibodies, reporter gene method) [4]: 0.024 µg/mL | IFN-γ(pg/ml) at 0.5µg/ml antibody [5]: 573 pg/mL | IFN-γ(pg/ml) at 5µg/ml antibody [5]: 751 pg/mL | IFN-γ(pg/ml) at 50µg/ml antibody [5]: 659 pg/mL
B9: C41 (antibody, human IgG1, kappa, V domains shown)
VH: B8 VH with Y27N, L29F, M34I, N52E, F60Y, I72V, T79A, V93I, S98T, F100Y
VL: B7 VL with F38Y, T57A, W102F, G106S

EC50 [1]: 0.056 nM | EC50 [2]: 0.079 nM | Kd [3]: 0.0622 nM | EC50 (Blocking effects of the antibodies, reporter gene method) [4]: 0.021 µg/mL | IFN-γ(pg/ml) at 0.5µg/ml antibody [5]: 676 pg/mL | IFN-γ(pg/ml) at 5µg/ml antibody [5]: 747 pg/mL | IFN-γ(pg/ml) at 50µg/ml antibody [5]: 617 pg/mL
B10: C11 (antibody, human IgG1, kappa, V domains shown)
VH: B7 VH with K38R, I52H, D56G, D73G, N77S, S98T
VL: B7 VL with F38Y, T57A

EC50 [1]: 0.046 nM | EC50 [2]: 0.118 nM | Kd [3]: 0.181 nM | EC50 (Blocking effects of the antibodies, reporter gene method) [4]: 0.04 µg/mL | IFN-γ(pg/ml) at 0.5µg/ml antibody [5]: 535 pg/mL | IFN-γ(pg/ml) at 5µg/ml antibody [5]: 633 pg/mL | IFN-γ(pg/ml) at 50µg/ml antibody [5]: 755 pg/mL
B11: C3 (antibody, human IgG1, kappa, V domains shown)
VH: QVQLQQSGPELVKPGASVKISCRSSGYTFTDYYINWVKQRPGQGLEWIGWIFPGSDYTYYNEKFKGKATLTVDKSSTTAYMLLSSLTSEDSAVYFCARDGGLRGPFDYWGQGTTLTVSS
VL: DIQMTQSPSSLSASLGGKVTITCKASQDINKYIAWYQQKPGKGPRLLIHYTSTLQPGIPSRFSGSGSGRNSSFSISNLEPEDIATYYCLQYDNLHTFGGGTKLEIKR

EC50 [1]: 0.048 nM | EC50 [2]: 0.169 nM | Kd [3]: 0.0467 nM | EC50 (Blocking effects of the antibodies, reporter gene method) [4]: 0.05 µg/mL | IFN-γ(pg/ml) at 0.5µg/ml antibody [5]: 611 pg/mL | IFN-γ(pg/ml) at 5µg/ml antibody [5]: 656 pg/mL | IFN-γ(pg/ml) at 50µg/ml antibody [5]: 733 pg/mL
B12: C24 (antibody, human IgG1, kappa, V domains shown)
VH: QVQLKQSGPGLVQPSQNLSITCTVSGFSLTGYGINWVRQSPGKGLEWLGVIWSGGNTEYNAAFRSRLSISKDTSKSQVFLKMNSLQADDTAIYSCARDSTGLYAMDYWGPGTSVTVSS
VL: DLQMTQTTSSLSASLGDRVTISCRTSQDISNFLNWYQQKPDGPLKLLIYYTSRLHSGVPSRFSGSGSGTDYSLTISNLEQEDIATYFCQQGYMLPPTFGGGTKLEIKR
